Reference: paper doi:10.1101/2025.09.09.675108 (bioRxiv, 2025)
Non-standard residues stand in square brackets, D forms with d. *: point of attachment. FITC = O=C1OC2(c3ccc(O)cc3Oc3cc(O)ccc32)c2ccc(NC(=S)*)cc21; pT = C[C@@H](OP(=O)(O)O)[C@H](N)C(=O)O

Tests used:
Assay in all cases: fluorescence polarisation
[1] = biological target: DDIAS pS676 peptide (FITC-SYDAp…-NH2)
[2] = biological target: DDIAS pS993 peptide (FITC-ETRSAWpSPELFS-NH2)
[3] = biological target: recombinant TOPBP1 BRCT7/8 domain (amino acids 1264-1493), WT (UniProt Q92547 1264-1493)
Chain of recombinant TOPBP1 BRCT7/8 domain (amino acids 1264-1493), WT (Q92547 1264-1493): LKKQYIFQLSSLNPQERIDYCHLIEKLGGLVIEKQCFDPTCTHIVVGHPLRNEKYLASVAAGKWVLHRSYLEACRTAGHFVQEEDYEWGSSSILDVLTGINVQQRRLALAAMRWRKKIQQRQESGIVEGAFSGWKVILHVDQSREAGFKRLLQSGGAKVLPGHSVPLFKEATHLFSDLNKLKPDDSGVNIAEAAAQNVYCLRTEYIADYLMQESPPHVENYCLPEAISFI

Row | Kd [1] [nM] | Kd [2] [nM] | Kd [3] [nM] | Molecule
1 | 300 | 1200 |  | recombinant TOPBP1 BRCT7/8 domain (amino acids 1264-1493), WT (from UniProt Q92547 1264-1493) (domain or fragment)
2 |  |  | 200 | {FITC}-ESIYF[pT]PELYDPEDT-NH2 [pBRIP1 peptide (FITC-ESIYFpTPELYDPEDT-NH2)]
